T1: human chemokine receptor CCR7 (human, UniProt P32248 25-378)
T1 sequence: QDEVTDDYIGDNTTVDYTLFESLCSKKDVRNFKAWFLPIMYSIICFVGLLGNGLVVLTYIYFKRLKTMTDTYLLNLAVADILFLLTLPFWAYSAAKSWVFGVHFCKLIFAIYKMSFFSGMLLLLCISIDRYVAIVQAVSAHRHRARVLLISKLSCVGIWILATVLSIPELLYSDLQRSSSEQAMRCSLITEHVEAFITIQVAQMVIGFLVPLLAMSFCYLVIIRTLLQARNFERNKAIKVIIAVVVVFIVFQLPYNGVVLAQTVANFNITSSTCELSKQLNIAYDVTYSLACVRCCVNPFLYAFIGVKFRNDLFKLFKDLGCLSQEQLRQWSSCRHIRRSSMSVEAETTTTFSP

T2: mouse CCR7 (mouse, UniProt P47774 25-378)
T2 construct: whole, on cells; On CHO-mouse CCR7 cells and on mouse splenocytes; also called mouse CCR7 ortholog
T2 sequence (looked up): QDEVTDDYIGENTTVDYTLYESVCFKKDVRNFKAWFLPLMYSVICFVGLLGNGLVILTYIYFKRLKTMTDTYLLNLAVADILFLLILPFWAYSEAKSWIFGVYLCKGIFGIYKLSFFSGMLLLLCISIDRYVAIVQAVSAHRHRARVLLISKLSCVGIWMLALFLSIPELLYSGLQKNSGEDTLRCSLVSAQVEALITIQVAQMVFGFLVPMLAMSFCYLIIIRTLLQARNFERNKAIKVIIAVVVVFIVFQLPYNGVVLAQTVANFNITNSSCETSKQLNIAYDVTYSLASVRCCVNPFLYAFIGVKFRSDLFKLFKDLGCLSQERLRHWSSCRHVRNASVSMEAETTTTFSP


How the values were obtained:
[1] = target: T1, human chemokine receptor CCR7; assay: cell-based or functional assay
[2] = target: T1, human chemokine receptor CCR7; assay: flow cytometry titration, CHO-human CCR7 cells
Procedure: (§1) The affinity of IgG1 antibodies to human CCR7 was evaluated by measuring mean fluorescence value (MFI) of cells expressing CCR7 in the presence of varying concentration of antibody in question, upon staining of bound to the cells antibodies with a commercial anti-human antibody-PE conjugate. The data of such experiments are depicted in FIGS. 9, 10, and 11. In these experiments binding of some antibodies to parental cells or cells expressing mouse CCR7 was also quantitatively characterized by obtaining EC₅₀ value (a concentration of IgG1 at which half-maximum MFI is achieved) for each curve using the SoftMaxPro5 program.

mouse CCR7 [3] = target: T2, mouse CCR7; assay: flow cytometry titration, CHO-mouse CCR7 cells
Procedure: as §1

[4] = target: T1, human chemokine receptor CCR7; assay: flow cytometry, human CCR7 cells (summary table)
mouse CCR7 [5] = target: T2, mouse CCR7; assay: flow cytometry, mouse CCR7 cells (summary table)
mouse CCR7 [6] = target: T2, mouse CCR7; assay: flow cytometry titration, CHO cells expressing mouse CCR7
[7] = target: T1, human chemokine receptor CCR7; assay: flow cytometry titration, human CCR7-expressing CHO cells
[8] = target: T1, human chemokine receptor CCR7; assay: flow cytometry titration, CCR7-expressing CHO cells; antibody not heat-treated
[9] = target: T1, human chemokine receptor CCR7; assay: flow cytometry titration, CCR7-expressing CHO cells; antibody kept 12 h at 40 C
[10] = target: T1, human chemokine receptor CCR7; assay: flow cytometry titration, cells expressing CCR7; before storage (unit from the axis, nM)
[11] = target: T1, human chemokine receptor CCR7; assay: flow cytometry titration, cells expressing CCR7; after 4.5 months at 4 C (unit from the axis, nM)
[12] = target: T1, human chemokine receptor CCR7; assay: flow cytometry titration, BHK cells expressing human CCR7
Procedure: as §1

IC50 of inhibition of Ca-flux induced by 15 nM CCL19, Chem-1 CCR7 human cells [1]	EC50 [2]	EC50 (mouse CCR7 [3])	EC50 [4]	EC50 (mouse CCR7 [5])	EC50 (mouse CCR7 [6])	EC50 [7]	EC50 [8]	EC50 [9]	EC50 [10]	EC50 [11]	EC50 [12]	Binder	EC50 of killing of JVM-13 cells with Fab-ZAP [1]	IC50 of decrease in cell viability with human Fab-ZAP, JVM-13 cells [1]
67 nM	0.7 nM	~642 nM	4 nM	1 nM	2.4 nM	3.7 nM	3 nM	3.1 nM	2.47 nM	2.06 nM	–	MSM-R735 (fully human anti-human CCR7 antibody, IgG1) (antibody, IgG1 format; also called R735 Human IgG1) heavy: not shown light: EIVLTQSPGTLSLSPGERATLSCRASQSVSSSYLAWYQQKPGQAPRLLIYGASSRATGIPDRFSGSGSGTDFTLTISRLEPEDFAVYYCQQGSPVTFGQGTKVEIKRTVAAPSVFIFPPSDEQLKSGTASVVCLLNNFYPREAKVQWKVDNALQSGNSQESVTEQDSKDSTYSLSSTLTLSKADYEKHKVYACEVTHQGLSSPVTKSFNRGEC	19 nM	~1.2 nM
–	–	–	–	–	–	–	–	–	–	–	3.8 nM	MSM-R710 (fully human anti-human CCR7 antibody, IgG1) (antibody, V domains shown, IgG1 format) VH: EVQLLESGGGLVQPGGSLRLSCAASGFTFSNYTMHWVRQAPGKGLEWVSGIGPRSGRTYYADSVKGRFTISRDNSKNTLYLQMNSLRAEDTAVYYCARSYAYQYRGFDYWGQGTLVTVSS VL: EIVLTQSPGTLSLSPGERATLSCRASQSVSSSYLAWYQQKPGQAPRLLIYGASSRATGIPDRFSGSGSGTDFTLTISRLEPEDFAVYYCQSSVTFGQGTKVEIKR	–	–
